# Experiments:
# [1] = system: patients with OA of the knee and/or hip; assay: Integrated summary of safety (ISS): JR, AA, DA by number of large joints with OA at baseline; assay type: in vivo, human
# Method: To improve risk-benefit for patients, analyses were conducted to identify populations of patients that might be at greater risk for joint-related adverse events. An integrated summary of safety (ISS) analysis was performed using pooled data from the clinical studies R475-PN-1612 (NCT03285646), R475-PN-1227 (NCT02447276), R475-PN-1523 (NCT02683239), R475-OA-1611 (NCT03161093), R475-OA-1688 (NCT03304379), R475-OA-1758 (NCT03691974), and MT-5547-J01 (NCT03245008).
# As used in this Example, the term “adjudicated arthropathy” or “AA” is an umbrella term that encompasses the following conditions: rapidly progressive OA type 1 or 2, subchondral insufficiency fractures, and primary osteonecrosis. The term “destructive arthropathy” or “DA” refers to abnormal bone fragmentation, destruction, or fracture over a short period of time, which are observed by X-ray radiography and which are features inconsistent with radiographic findings typically observed in conventional advanced OA. The term “joint replacement” or “JR” refers to joint replacement surgery.
# To examine different phenotypes of OA (generalized OA in particular) a subgroup analysis based on the number of large joints (knees, hips, shoulders) with OA at baseline was performed. OA joints were defined as any hip or knee with baseline KL 2 score or above and any shoulder with a score of mild, moderate or severe. Thus, the minimum number of joints with OA was 1 and the maximum number could be 6. Three subgroups were arbitrarily designated 1-2, 3-4, and 5-6 large joints with OA at baseline.
# The analyses are based on large numbers of patients: 2103 patients in the placebo group, 1676 patients in the fasinumab 1 mg Q8W group (also referred to herein as “1Q8”), and 3009 patients in the 1 mg Q4W group (also referred to herein as “1Q4”). The percentage of the population in each subgroup was similar across treatment arms; the 1-2 joint subgroup ranged from 55.8 to 59.5% of the entire population, the range for the 3-4 joint subgroup was 33.6 to 37.4%, and the range for in the 5-6 joint subgroup was 6.7 to 7.1%.
# [2] = system: patients with OA of the knee and/or hip; assay: ISS post-hoc analysis combining OA joint burden and alkaline phosphatase cut-off (weeks 8-16); assay type: in vivo, human
# Source text: Both the baseline burden of OA and the change in alkaline phosphatase identify patients with higher risk of AA/DA/JR; these findings are observed only in the fasinumab arms, not the placebo arm, indicating an NGF-specific mechanism. The results raise the possibility of excluding high-risk patients and treating only patients with lower risk of joint-related adverse events, using more than one approach. To understand whether there is an interaction between the two approaches, and to explore a number of potential risk mitigation options, a post-hoc analysis was performed on the ISS data set to examine the impact of alkaline phosphatase within various joint subgroups. Because efficacy was preserved in the 1-2 and 3-4 joint subgroups as discussed above, the rates of AA/DA/JR were examined in overlapping subgroups: patients with 1-2, 1-3 and 1-4 joints with OA at baseline. For each of these subgroups, five potential cut-offs for change in alkaline phosphatase were explored: no change, 5-, 10-, 15- and 20-point change from baseline.
# FIGS. 8A-8D show the percentage of patients with AA/DA/JR following exclusion of those who have a change in alkaline phosphatase at or above the designated cut-off at any time between weeks 8 and 16. In each of FIGS. 8A-8D, the X-axis represents overlapping bins of patients that become successively smaller as one looks left to right (percentage of the total population remaining in each bin is shown in the table beneath the graph). […] The next 5 bins to the right show the rates of AA/DA/JR in the patients who remain after excluding those above the designated cut-off for change in alkaline phosphatase. The placebo rate from the total ISS population is expressed as a solid black line.
# For each of the joint related adverse events, the burden of OA and change in alkaline phosphatase are complementary from the perspective of risk-reduction. FIGS. 8A, 8C, and 8E show the reduction of risk of JR, AA, and DA, respectively, in patients treated with 1 mg fasinumab Q8W, for patients with different OA burden at different cut-off values for change in alkaline phosphatase. Similarly, FIGS. 8B, 8D, and 8F show the reduction of risk of JR, AA, and DA, respectively, in patients treated with 1 mg fasinumab Q4W, for patients with different OA burden at different cut-off values for change in alkaline phosphatase. For example, for the 1Q4 treatment arm and in the 1-2 joint subgroup, the JR rate is reduced from 7.4% in the total ISS population, to 6.4% in the 1-2 joint subgroup, to 5.5% in the population below the 20-point alkaline phosphatase cut-off—a difference of 0.4% from the ISS placebo rate (FIG. 8B). Similarly, for the 1Q4 treatment arm and in the 1-2 joint subgroup, the overall AA rate (70-80% RPDA-1) is reduced from 9.2% in the total ISS population, to 7.7% in the 1-2 joint subgroup, to 7.1% in the population below the 20-point alkaline phosphatase cut-off—a difference of 5.6% from the ISS placebo rate (FIG. 8D). Last, the DA rate is reduced from 0.5% in the total ISS population, to 0.3% in the 1-2 joint subgroup, to 0.1% in the population below the 20-point alkaline phosphatase (FIG. 8F).
# [3] = 1 mg Q4W (1Q4), 1-2 joint subgroup
# [4] = 1 mg Q4W (1Q4), 5-6 joint subgroup
# [5] = 1 mg Q8W (1Q8), 1-2 joint subgroup
# [6] = 1 mg Q8W (1Q8), 5-6 joint subgroup
# [7] = 1Q4, 1-2 joint subgroup, below the 20-point alkaline phosphatase cut-off
# [8] = 1Q4, 1-2 joint subgroup, lower cut-offs for change in alkaline phosphatase
substance,measurement,setting,value
Fasinumab: fully-human high-affinity monoclonal antibody directed against NGF; HCVR/LCVR SEQ ID NOs: 2/10,median time for detection of DA,[1]; 1 mg Q4W,343.5 days
same,difference in all AA from placebo,[1]; 1 mg Q4W (1Q4),5.7%
same,"JR rate, difference from placebo",[1]; [3],1.3%
same,RPOA-1 rate,[1]; [3],5.8%
same,"RPOA-1 rate, difference versus placebo",[1]; [3],4.1%
same,percentage of patients who developed adjudicated arthropathy (AA),[1]; [3],7.7%
same,percentage of patients who underwent joint replacement (JR),[1]; [3],6.4%
same,percentage of patients with destructive arthropathy (DA),[1]; [3],0.3%
same,percentage of patients who developed adjudicated arthropathy (AA),[1]; [4],12.2%
same,percentage of patients who underwent joint replacement (JR),[1]; [4],14.6%
same,percentage of patients with destructive arthropathy (DA),[1]; [4],1.5%
same,median time for detection of DA,[1]; 1 mg Q8W,284 days
same,difference in all AA from placebo,[1]; 1 mg Q8W (1Q8),3.7%
same,"JR rate, difference from placebo",[1]; [5],0.8%
same,RPOA-1 rate,[1]; [5],4.8%
same,"RPOA-1 rate, difference versus placebo",[1]; [5],3.1%
same,percentage of patients who developed adjudicated arthropathy (AA),[1]; [5],5.7%
same,percentage of patients who underwent joint replacement (JR),[1]; [5],5.9%
same,percentage of patients with destructive arthropathy (DA),[1]; [5],0.2%
same,percentage of patients who developed adjudicated arthropathy (AA),[1]; [6],10.7%
same,percentage of patients who underwent joint replacement (JR),[1]; [6],12.5%
same,percentage of patients with destructive arthropathy (DA),[1]; [6],0.9%
same,median time for detection of DA,"[1]; pooled high dose (3 mg Q4W, 6 mg Q4W, 9 mg Q8W, 9 mg Q4W)",364.5 days
same,"DA rate, difference from placebo rate","[2]; 1 mg Q4W, alkaline phosphatase cut-off of 20",0.1%
same,DA rate,[2]; [7],0.1%
same,JR rate,[2]; [7],5.5%
same,"JR rate, difference from the ISS placebo rate",[2]; [7],0.4%
same,overall AA rate,[2]; [7],7.1%
same,"overall AA rate, difference from the ISS placebo rate",[2]; [7],5.6%
same,overall AA rate,[2]; [8],4.6%
same,"overall AA rate, difference from the placebo rate",[2]; [8],2.5%
same,rates of JR and DA,[2]; [8],approximately the placebo rates
same,DA rate,"[2]; 1Q4, total ISS population",0.5%
same,JR rate,"[2]; 1Q4, total ISS population",7.4%
same,overall AA rate,"[2]; 1Q4, total ISS population",9.2%
